The results in this text go back to patent US20230312724A1 (KADMON, published 2023).

The target in assay [1] is T1, human B7-H4-Fc (human).
T1 construct: also called hB7-H4-Fc; hB7-H4 Fc
The assay is described as follows: ELISA, coated hB7-H4-Fc. As to the method:
(§1) ELISA experiments were performed to determine binding to hB7-H4-Fc (FIG. 4A), hB7-H4-his (FIG. 4B), hB7-H4 IgV domain (FIG. 4C), and mB7-H4 IgV domain (FIG. 4D). Flow cytrometry experiments were performed to determine binding to CHO cells expressing hB7-H4 (FIG. 4E) or mB7-H4 (FIG. 4F). […] A cross-reactive IgV binding antibody was used as a control.
(§2) About 1-2 μg/ml of human or mouse B7-H4-Fc (or his-tagged) was immobilized on ELISA plates (Immuno 2HB, Thermo scientific, cat #3455) at 4° C. overnight. After blocking the plates with 3% PBS+milk, serial diluted antibodies were added to the blocked plates and incubated at RT for 1-1.5 h. After washing the plates with PBS-T (0.05%), horse radish peroxidase (HRP)-conjugated antibody targeting the hFab was added to the plate. Signals were developed by adding 3,3′,5,5′-Tetramethylbenzidine (TMB (followed 1N of H₂SO₄ to stop the reaction. The OD at 450 nm was read by ELISA plate reader (Infinite M1000 from TECAN). GraphPad from Prism was used to plot OD450 vs. antibody concentration curve and to calculate the EC50 values.

Assay [2] addresses T2, mouse B7-H4 expressed on cells (mouse, UniProt Q7TSP5 25-257).
T2 construct: also called cellular mB7-H4; mB7-H4/CT26
T2 sequence: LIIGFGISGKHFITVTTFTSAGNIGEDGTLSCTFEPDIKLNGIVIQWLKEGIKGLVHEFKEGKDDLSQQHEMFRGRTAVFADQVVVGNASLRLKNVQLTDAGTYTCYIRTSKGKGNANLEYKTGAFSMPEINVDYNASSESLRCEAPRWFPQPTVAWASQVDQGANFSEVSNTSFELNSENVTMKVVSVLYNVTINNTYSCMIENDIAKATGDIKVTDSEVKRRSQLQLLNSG
The assay is described as follows: flow cytometry, mB7H4 stable cells (CHO). As to the method: as §1
(§3) Cells were harvested, washed once, and then re-suspended to the concentration of 1×10⁶ cells/ml in ice cold FACS Buffer. 25 μl of cell suspension was added to each well of a 96-well round-bottom microliter plate. Serially diluted antibodies or fusion proteins were added to each well and incubated for 1 hour at 4° C. Cells were washed three times by centrifugation at 1500 rpm for 5 minutes, and then stained with secondary antibody (1:200 dilution) for 30 min at 4° C. in the dark. Cells were washed once, re-suspended in 100 μl PBS buffer and then analyzed using Guava Flow Cytometry EasyCyte system.

For assay [3], the target named is T3, mouse B7-H4-his (mouse, UniProt Q7TSP5 25-257).
T3 construct: also called mB7-H4-his; mB7-H4-His; not shown: his tag
T3 sequence: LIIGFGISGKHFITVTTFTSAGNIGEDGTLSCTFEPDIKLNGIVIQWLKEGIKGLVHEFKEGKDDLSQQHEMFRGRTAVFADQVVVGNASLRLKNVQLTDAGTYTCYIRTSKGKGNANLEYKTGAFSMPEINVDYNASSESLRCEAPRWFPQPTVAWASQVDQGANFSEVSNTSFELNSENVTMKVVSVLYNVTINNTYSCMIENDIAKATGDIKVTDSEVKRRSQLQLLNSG
The assay is described as follows: SPR (Biacore).

The target of assay [4] is T4, human B7-H4-his (human, UniProt Q7Z7D3 25-259).
T4 construct: also called hB7-H4-his; hB7-H4 his; not shown: his tag
T4 sequence: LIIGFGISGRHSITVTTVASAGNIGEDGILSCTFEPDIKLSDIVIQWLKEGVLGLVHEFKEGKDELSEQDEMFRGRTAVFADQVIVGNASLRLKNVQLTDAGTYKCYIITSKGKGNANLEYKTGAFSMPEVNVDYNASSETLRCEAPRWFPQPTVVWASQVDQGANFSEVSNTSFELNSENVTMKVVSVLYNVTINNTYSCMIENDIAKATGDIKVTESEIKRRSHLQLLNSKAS
The assay is described as follows: SPR (Biacore). (In general: SPR reads the build-up and loss of mass on a sensor chip optically.)

Assay [5] addresses T1, human B7-H4-Fc. The assay is described as follows: SPR (Biacore).
Assay [6] concerns the target T5, mB7-H4 (soluble mouse B7-H4, construct not named) (mouse, UniProt Q7TSP5 25-257, limits assumed).
T5 sequence: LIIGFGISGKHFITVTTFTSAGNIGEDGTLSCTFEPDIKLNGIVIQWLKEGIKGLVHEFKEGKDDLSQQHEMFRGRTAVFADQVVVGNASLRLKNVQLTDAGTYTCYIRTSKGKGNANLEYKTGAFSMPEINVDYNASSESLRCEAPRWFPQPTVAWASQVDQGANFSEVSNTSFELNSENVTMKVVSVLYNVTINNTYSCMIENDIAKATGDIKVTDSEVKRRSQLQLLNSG
Description: summary of ELISA and flow cytometry.

The target of assay [7] is T6, mouse B7-H4-Fc (mouse; human).
T6 construct: also called mB7-H4-Fc; mB7-H4-hFc
T6 sequence (chain, as listed by the source): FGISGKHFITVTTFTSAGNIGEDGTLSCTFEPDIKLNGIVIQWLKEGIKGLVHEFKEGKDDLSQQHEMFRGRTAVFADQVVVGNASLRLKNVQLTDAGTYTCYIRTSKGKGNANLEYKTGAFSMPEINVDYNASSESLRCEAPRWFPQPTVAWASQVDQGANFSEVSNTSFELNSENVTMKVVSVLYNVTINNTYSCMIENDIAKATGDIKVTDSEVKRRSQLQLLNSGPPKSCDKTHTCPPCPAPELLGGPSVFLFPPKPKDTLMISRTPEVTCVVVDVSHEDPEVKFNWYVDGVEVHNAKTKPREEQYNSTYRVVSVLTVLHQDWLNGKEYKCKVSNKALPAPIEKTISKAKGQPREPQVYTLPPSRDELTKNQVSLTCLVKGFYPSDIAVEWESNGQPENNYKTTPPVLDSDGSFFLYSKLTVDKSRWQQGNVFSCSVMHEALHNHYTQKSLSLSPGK
Description: ELISA, coated mB7-H4-Fc (title on the sheet: Binding to mB7H4-Fc). As to the method: as §1, §2
(In general: An ELISA detects its analyte on a solid surface through an enzyme-linked reagent.)

The target of assay [8] is T7, IgV domain of mouse B7-H4-Fc (mouse; human).
T7 construct: also called mB7-H4 IgV domain
T7 sequence (chain, as listed by the source): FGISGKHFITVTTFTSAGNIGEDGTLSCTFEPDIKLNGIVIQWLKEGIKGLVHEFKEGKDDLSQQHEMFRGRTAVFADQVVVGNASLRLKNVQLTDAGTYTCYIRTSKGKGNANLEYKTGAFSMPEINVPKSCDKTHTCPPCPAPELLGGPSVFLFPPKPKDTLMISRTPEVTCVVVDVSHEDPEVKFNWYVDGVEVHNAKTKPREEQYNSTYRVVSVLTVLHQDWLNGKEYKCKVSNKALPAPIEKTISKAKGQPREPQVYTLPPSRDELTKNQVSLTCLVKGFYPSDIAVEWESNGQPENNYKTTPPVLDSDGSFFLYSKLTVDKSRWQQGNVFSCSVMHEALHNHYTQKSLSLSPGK
The assay is described as follows: ELISA, coated mB7-H4 IgV domain. As to the method: as §1, §2

In assay [9] the target is T8, IgC domain of human B7-H4-Fc (human).
T8 construct: also called hB7-H4 IgC domain
T8 sequence (chain, as listed by the source): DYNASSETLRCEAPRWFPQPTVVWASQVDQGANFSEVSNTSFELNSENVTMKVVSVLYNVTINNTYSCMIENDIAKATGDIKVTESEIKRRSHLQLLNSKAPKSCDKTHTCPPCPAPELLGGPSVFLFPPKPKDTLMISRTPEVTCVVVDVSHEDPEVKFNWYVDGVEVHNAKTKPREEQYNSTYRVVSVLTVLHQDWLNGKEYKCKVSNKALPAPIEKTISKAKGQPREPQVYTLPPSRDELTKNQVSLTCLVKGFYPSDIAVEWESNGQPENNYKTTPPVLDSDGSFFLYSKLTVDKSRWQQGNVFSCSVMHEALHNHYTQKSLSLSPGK
Description: ELISA, coated hB7-H4 IgC domain. Here is the method: (§4) ELISA experiments were performed to determine binding to hB7-H4-Fc (FIG. 5A), hB7-H4-his (FIG. 5B), mB7-H4-Fc domain (FIG. 5C), hB7-H4 IgV domain (FIG. 5D), and hB7-H4 IgC domain (FIG. 5E). Flow cytrometry experiments were performed to determine binding to CHO cells expressing hB7-H4 (FIG. 5F) or mB7-H4 (FIG. 5G). […] A cross-reactive IgV binding antibody and an IgC binding antibody were used as controls.
as §2

Assay [10] deals with T6, mouse B7-H4-Fc. The assay is described as follows: ELISA, coated mB7-H4-Fc. Here is the method: as §4, §2
The target of assay [11] is T9, IgV domain of human B7-H4-Fc (human).
T9 construct: also called hB7-H4 IgV domain
T9 sequence (chain, as listed by the source): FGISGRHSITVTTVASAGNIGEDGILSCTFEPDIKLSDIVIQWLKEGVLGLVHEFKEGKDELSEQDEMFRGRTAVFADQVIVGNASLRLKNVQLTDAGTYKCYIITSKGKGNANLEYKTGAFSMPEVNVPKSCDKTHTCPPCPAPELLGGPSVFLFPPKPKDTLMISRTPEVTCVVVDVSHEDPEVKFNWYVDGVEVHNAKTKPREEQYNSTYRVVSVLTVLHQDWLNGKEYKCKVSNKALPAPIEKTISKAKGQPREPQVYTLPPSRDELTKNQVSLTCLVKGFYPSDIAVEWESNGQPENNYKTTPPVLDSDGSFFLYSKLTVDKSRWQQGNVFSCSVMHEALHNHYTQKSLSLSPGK
The assay is described as follows: ELISA, coated hB7-H4 IgV domain. Here is the method: as §4, §2

The target in assay [12] is T4, human B7-H4-his. The assay is described as follows: ELISA, coated hB7-H4-his. Here is the method:
as §2

Assay [13] addresses T1, human B7-H4-Fc. The assay is described as follows: ELISA, coated hB7-H4-Fc. As to the method: as §4, §2
This is another data set of the same source.

The target in assay [14] is T2, mouse B7-H4 expressed on cells. The assay is described as follows: flow cytometry, CHO cells expressing mB7-H4. Here is the method: as §4, §3
(Flow cytometry measures light scatter and fluorescence of single cells or particles in a stream.)

Like-named read-outs stand apart in the source and are kept apart here.

T1 sequence (chain, as listed by the source): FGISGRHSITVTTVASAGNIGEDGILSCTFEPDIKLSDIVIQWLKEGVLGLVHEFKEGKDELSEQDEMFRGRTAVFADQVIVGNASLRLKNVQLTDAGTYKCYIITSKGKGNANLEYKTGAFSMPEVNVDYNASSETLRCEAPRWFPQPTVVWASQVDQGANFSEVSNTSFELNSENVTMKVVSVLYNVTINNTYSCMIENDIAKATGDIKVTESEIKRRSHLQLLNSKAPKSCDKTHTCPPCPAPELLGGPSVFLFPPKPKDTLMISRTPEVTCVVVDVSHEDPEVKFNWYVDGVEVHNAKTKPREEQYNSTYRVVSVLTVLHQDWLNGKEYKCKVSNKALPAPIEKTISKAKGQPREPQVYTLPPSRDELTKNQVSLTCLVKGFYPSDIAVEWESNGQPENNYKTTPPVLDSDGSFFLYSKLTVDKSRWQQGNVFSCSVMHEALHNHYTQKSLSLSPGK

B1: 4H6/4H6 (antibody, human IgG1, V domains shown)
VH: EVQLLESGGGLVQPGGSLRLSCAASGFTFSSYGMHWVRQAPGKGLEWVSGISGSGGSTYYADSVKGRFTISRDNSKNTLYLQMNSLRAEDTAVYYCARTQWRASLDPWGQGTLVNVSS
VL: DIQMTQSPSSLSASVGDRVTITCRASQDISYWLAWYQQKPGKAPKLLIYGASTLQSGVPSRFSGSGSGTDFTLTISSLQPEDFATYYCQQTTMSPYTFGQGTKVEIK
For orientation: EC50 (read off the curve) means the concentration that produces a half-maximal response. Broadly, the Kd is the equilibrium constant for the complex coming apart. Consider B1, for which, in [1], the “EC50 (read off the curve)” value was around 0.01 µg/mL. For the same molecule, the binding result in assay [2] was “no binding”; in assay [3], “no binding”; in [6], “no binding”; in [7], “no binding (tested: log 0.3 ug/ml (about 2 ug/ml))”; in [8] it was “no binding”. The Kd in assay [4] turned out to be 4000 pM; in [5], 2860 pM.

B2: 9H2/9H2 (antibody, V domains shown)
VH: QVQLVQSGAEVKKPGSSVKVSCKASGGTFSTYAINWVRQAPGQGLEWMGGINPMFGTARYAQKFQGRVTITADESTSTAYMELSSLRSEDTAVYYCARGRLHRHWGQGTLVTVSS
VL: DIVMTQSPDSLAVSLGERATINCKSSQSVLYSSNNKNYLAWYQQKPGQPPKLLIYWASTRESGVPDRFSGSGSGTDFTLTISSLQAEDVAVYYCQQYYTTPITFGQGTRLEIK
Turning to B2, the binding result in assay [9] is recorded as “no binding (tested: log 0.3 ug/ml (about 2 ug/ml))”; in assay [10] it was “no binding (tested: log 1 nM (10 nM))”; in assay [6], “no binding”; in [14], “no binding (tested: log 2.3 nM (about 200 nM))”. Moreover, the “EC50 (read off the curve)” value in assay [11] is around 70 pM; in assay [12], around 60 pM; in assay [13] it was around 70 pM.
